Measured values from patent US20070093443.

Key:
[1] = target: Complement component C8 (human)
[2] = target: T1, cynomolgus monkey complement C2 (in plasma of treated monkeys), G8F3W0
T1 chain: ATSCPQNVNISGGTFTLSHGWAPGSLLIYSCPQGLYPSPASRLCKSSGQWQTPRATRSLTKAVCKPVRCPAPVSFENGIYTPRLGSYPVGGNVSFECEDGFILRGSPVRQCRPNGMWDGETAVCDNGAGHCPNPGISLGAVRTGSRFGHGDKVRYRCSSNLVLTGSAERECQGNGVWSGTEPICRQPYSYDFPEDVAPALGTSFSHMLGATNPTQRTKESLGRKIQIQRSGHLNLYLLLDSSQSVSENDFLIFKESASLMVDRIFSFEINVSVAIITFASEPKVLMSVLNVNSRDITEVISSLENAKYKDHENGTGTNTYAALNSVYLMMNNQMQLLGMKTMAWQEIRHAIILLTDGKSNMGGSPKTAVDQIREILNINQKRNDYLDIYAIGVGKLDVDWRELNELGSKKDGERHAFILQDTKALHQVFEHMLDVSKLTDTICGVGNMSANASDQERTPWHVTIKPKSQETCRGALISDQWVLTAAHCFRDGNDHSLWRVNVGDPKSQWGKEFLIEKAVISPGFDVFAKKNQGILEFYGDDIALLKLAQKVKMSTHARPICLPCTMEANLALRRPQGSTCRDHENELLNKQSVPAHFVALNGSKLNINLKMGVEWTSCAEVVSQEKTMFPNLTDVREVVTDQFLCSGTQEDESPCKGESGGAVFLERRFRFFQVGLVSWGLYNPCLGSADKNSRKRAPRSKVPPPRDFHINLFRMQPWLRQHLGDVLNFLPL

[3] = target: T2, rat complement C2 (in plasma of treated rats), Q8CIP8
T2 chain: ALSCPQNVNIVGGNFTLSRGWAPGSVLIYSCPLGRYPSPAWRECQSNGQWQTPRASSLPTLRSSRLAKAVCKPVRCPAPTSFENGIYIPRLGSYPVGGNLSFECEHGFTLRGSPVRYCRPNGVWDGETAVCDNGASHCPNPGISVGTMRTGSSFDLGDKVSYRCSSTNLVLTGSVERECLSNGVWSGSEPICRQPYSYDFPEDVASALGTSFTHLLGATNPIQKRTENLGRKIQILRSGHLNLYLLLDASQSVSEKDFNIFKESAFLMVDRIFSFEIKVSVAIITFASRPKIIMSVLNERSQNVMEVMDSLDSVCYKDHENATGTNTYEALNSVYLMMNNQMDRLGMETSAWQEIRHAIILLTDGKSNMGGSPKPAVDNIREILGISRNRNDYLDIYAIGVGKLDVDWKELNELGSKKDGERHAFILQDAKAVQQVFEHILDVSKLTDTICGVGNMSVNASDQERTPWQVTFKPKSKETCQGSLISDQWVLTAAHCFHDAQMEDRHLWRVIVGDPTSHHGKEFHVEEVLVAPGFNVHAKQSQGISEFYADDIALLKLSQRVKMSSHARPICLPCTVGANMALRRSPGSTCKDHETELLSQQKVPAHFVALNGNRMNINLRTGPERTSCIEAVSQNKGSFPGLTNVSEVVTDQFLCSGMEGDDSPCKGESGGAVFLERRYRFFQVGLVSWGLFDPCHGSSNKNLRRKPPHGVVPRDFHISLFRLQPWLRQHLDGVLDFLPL

Chain of Complement component C8 (human) (chain, as listed by the source, chain 1 of 3): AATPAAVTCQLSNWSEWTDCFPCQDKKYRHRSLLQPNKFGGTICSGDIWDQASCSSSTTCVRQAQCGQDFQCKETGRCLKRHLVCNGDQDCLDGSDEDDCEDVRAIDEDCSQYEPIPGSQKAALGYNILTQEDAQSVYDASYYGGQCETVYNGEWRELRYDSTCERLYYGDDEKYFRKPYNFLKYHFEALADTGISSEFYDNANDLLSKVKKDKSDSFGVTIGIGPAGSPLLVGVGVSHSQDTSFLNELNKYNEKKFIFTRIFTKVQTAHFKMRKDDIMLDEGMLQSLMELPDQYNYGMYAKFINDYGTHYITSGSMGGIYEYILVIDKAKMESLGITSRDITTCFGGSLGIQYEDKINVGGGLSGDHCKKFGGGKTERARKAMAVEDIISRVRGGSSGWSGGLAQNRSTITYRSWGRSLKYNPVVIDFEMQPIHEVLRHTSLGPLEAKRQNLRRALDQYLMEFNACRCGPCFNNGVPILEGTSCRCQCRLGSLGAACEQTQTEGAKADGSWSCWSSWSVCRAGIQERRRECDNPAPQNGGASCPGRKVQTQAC
Chain of Complement component C8 (human) (chain, as listed by the source, chain 2 of 3): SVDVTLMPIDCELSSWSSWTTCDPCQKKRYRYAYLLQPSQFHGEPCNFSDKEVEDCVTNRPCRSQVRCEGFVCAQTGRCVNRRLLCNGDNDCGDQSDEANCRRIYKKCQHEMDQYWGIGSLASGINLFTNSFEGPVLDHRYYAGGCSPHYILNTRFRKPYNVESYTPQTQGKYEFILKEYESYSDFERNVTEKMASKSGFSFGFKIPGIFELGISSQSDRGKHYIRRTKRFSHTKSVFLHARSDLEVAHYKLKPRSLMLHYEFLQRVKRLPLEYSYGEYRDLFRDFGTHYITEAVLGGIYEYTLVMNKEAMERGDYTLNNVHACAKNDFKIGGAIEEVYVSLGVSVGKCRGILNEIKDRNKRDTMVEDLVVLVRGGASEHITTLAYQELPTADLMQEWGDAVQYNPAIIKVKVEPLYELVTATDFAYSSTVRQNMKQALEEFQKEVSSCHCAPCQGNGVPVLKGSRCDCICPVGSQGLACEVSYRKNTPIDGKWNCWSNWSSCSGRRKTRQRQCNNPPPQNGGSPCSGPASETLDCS
Chain of Complement component C8 (human) (chain, as listed by the source, chain 3 of 3): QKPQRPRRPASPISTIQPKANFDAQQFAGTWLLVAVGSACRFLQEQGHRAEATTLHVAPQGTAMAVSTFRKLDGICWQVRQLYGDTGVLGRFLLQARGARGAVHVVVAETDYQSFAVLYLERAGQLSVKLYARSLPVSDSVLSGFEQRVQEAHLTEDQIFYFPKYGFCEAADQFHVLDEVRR

B1: modified MT-SP1 CB252 (Y146E/K224N) protease domain (protein)
chain: VVGGTDADEGEWPWQVSLHALGQGHICGASLISPNWLVSAAHCYIDDRGFRYSDPTQWTAFLGLHDQSQRSAPGVQERRLKRIISHPFFNDFTFDYDIALLELEKPAEYSSMVRPICLPDASHVFPAGKAIWVTGWGHTQEGGTGALILQKGEIRVINQTTCENLLPQQITPRMMCVGFLSGGVDSCQGDSGGPLSSVEADGRIFQAGVVSWGDGCAQRNNPGVYTRLPLFRDWIKENTGV
- cleavage in 90% human plasma by Western blot (Complement C3 (human)): none of the tested proteases cleaved C3 in human plasma as compared to the no protease control even at the highest concentration of protease (2000 nM)
- hemolysis (OD415) by protease-preincubated purified complement protein added back to the corresponding depleted sera (Complement C3 (human)): showed no decreased hemolysis as compared to normal sera or the no protease control
- hemolysis (OD415) by protease-preincubated purified complement protein added back to the corresponding depleted sera [1]: showed no decreased hemolysis as compared to normal sera or the no protease control
- C2 Western blot of plasma from monkeys dosed IV with 1 or 3 mg/kg protease [2]: increased cleavage of C2 in plasma from CB252 and CB377 treated monkeys after treatment with 3 mg/kg protease but not after treatment with 1 mg/kg protease ... a greater cleavage of C2 occurred in plasma collected form CB252 treated monkeys as compared to CB377 treated monkeys at all time points tes
- C2 Western blot of plasma from monkeys dosed with 1 mg/kg CB252 IV [2]: Plasma from monkeys treated with 1 mg/kg CB252 had no discernable C2 cleavage
- average extent of degradation of C2 (densitometry of C2 Western blots), 5 minutes after 3 mg/kg CB252 IV [2]: 60% degraded at 5 minutes
- average extent of degradation of C2 (densitometry of C2 Western blots), 30 minutes after 3 mg/kg CB252 IV [2]: 50% degraded at 30 minutes
- average extent of degradation of C2 (densitometry of C2 Western blots), 60 minutes after 3 mg/kg CB252 IV [2]: 40% degraded at 60 minutes
- percent C2 cleavage (Western blot densitometry), plasma of animal 2, 5 minutes after 3 mg/kg CB252 IV [2]: 62%
- percent C2 cleavage (Western blot densitometry), plasma of animal 2, 30 minutes after 3 mg/kg CB252 IV [2]: 55%
- percent C2 cleavage (Western blot densitometry), plasma of animal 2, 60 minutes after 3 mg/kg CB252 IV [2]: 50%
- percent C2 cleavage (Western blot densitometry), plasma of animal 4, 5 minutes after 3 mg/kg CB252 IV [2]: 55%
- percent C2 cleavage (Western blot densitometry), plasma of animal 4, 30 minutes after 3 mg/kg CB252 IV [2]: 45%
- percent C2 cleavage (Western blot densitometry), plasma of animal 4, 60 minutes after 3 mg/kg CB252 IV [2]: 37%
- percent C2 cleavage (Western blot densitometry), plasma of animal 5, 5 minutes after 3 mg/kg CB252 IV [2]: 65%
- percent C2 cleavage (Western blot densitometry), plasma of animal 5, 30 minutes after 3 mg/kg CB252 IV [2]: 50%
- percent C2 cleavage (Western blot densitometry), plasma of animal 5, 60 minutes after 3 mg/kg CB252 IV [2]: 38%
- C2 Western blot of plasma from rats dosed IV with the protease [3]: CB252 showed a greater cleavage of C2 as there was little detectable C2 present in the plasma samples as assessed by Western Blot even after only 5 minutes following injection, with no detectable C2 present at 60 or 120 minutes after injection

B2: modified MT-SP1 CB377 (Y146E/Q175D/K224N) protease domain (protein)
chain: VVGGTDADEGEWPWQVSLHALGQGHICGASLISPNWLVSAAHCYIDDRGFRYSDPTQWTAFLGLHDQSQRSAPGVQERRLKRIISHPFFNDFTFDYDIALLELEKPAEYSSMVRPICLPDASHVFPAGKAIWVTGWGHTQEGGTGALILQKGEIRVINQTTCENLLPQDITPRMMCVGFLSGGVDSCQGDSGGPLSSVEADGRIFQAGVVSWGDGCAQRNNPGVYTRLPLFRDWIKENTGV
- cleavage in 90% human plasma by Western blot (Complement C3 (human)): none of the tested proteases cleaved C3 in human plasma as compared to the no protease control even at the highest concentration of protease (2000 nM)
- hemolysis (OD415) by protease-preincubated purified complement protein added back to the corresponding depleted sera (Complement C3 (human)): showed no decreased hemolysis as compared to normal sera or the no protease control
- hemolysis (OD415) by protease-preincubated purified complement protein added back to the corresponding depleted sera [1]: showed no decreased hemolysis as compared to normal sera or the no protease control
- C2 Western blot of plasma from monkeys dosed IV with 1 or 3 mg/kg protease [2]: increased cleavage of C2 in plasma from CB252 and CB377 treated monkeys after treatment with 3 mg/kg protease but not after treatment with 1 mg/kg protease
- C2 Western blot of plasma from rats dosed IV with the protease [3]: CB377 also showed diminished C2 levels as compared to vehicle control at early time points, however, by 60 minutes and 120 minutes the levels of C2 were comparable to those from vehicle control samples
